Target: E. coli core RNAP enzyme (E. coli, UniProt P0A7Z4 1-329; P0A8V2 1-1342; P0A8T7 1-1407; P0A800 1-91)
Experiment: fluorescence polarisation

E. coli core RNAP enzyme, sequence (P0A7Z4 whole entry, chain 1 of 4): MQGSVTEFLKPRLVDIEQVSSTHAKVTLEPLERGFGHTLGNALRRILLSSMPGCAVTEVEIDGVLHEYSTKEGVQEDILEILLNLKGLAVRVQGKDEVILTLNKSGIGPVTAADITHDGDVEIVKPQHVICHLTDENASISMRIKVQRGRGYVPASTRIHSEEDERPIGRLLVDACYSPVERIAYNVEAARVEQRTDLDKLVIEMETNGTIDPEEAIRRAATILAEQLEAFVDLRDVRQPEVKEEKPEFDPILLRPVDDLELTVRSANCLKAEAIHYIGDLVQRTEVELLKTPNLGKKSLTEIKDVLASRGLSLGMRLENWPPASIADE
E. coli core RNAP enzyme, sequence (P0A8V2 whole entry, chain 2 of 4): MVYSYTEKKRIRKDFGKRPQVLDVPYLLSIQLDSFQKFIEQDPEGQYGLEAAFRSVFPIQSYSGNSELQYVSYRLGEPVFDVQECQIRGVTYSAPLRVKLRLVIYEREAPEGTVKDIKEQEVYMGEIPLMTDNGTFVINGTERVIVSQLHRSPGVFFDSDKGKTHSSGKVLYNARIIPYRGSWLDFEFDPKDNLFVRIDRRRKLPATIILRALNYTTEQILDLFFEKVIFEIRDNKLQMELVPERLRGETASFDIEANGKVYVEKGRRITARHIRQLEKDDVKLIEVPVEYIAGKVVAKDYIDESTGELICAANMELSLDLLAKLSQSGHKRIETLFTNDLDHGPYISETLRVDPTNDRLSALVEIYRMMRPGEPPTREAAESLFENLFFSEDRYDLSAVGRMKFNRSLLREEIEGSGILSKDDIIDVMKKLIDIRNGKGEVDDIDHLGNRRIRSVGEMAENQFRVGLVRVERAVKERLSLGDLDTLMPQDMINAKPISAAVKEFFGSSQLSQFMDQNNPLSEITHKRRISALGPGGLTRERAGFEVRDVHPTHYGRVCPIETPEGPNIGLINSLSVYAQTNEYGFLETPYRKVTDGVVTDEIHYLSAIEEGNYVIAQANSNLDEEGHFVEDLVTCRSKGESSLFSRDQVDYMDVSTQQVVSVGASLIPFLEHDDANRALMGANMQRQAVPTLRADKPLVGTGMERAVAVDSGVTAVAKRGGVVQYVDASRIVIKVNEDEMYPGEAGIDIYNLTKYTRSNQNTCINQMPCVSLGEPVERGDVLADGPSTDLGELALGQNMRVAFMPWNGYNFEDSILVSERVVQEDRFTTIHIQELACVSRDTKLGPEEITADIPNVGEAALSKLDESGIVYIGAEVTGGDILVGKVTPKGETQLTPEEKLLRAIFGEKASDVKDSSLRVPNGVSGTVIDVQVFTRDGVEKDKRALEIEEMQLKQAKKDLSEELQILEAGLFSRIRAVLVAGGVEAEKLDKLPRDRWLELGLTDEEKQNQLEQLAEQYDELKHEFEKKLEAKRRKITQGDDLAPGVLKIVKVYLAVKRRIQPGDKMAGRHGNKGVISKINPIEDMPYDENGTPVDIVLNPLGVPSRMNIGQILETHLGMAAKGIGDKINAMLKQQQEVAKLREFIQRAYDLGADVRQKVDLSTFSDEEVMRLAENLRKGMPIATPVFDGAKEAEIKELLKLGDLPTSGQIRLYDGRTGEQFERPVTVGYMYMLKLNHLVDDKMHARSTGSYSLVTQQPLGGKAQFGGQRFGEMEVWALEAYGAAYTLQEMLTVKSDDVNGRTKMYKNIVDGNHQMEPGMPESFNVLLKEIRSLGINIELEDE
E. coli core RNAP enzyme, sequence (P0A8T7 whole entry, chain 3 of 4): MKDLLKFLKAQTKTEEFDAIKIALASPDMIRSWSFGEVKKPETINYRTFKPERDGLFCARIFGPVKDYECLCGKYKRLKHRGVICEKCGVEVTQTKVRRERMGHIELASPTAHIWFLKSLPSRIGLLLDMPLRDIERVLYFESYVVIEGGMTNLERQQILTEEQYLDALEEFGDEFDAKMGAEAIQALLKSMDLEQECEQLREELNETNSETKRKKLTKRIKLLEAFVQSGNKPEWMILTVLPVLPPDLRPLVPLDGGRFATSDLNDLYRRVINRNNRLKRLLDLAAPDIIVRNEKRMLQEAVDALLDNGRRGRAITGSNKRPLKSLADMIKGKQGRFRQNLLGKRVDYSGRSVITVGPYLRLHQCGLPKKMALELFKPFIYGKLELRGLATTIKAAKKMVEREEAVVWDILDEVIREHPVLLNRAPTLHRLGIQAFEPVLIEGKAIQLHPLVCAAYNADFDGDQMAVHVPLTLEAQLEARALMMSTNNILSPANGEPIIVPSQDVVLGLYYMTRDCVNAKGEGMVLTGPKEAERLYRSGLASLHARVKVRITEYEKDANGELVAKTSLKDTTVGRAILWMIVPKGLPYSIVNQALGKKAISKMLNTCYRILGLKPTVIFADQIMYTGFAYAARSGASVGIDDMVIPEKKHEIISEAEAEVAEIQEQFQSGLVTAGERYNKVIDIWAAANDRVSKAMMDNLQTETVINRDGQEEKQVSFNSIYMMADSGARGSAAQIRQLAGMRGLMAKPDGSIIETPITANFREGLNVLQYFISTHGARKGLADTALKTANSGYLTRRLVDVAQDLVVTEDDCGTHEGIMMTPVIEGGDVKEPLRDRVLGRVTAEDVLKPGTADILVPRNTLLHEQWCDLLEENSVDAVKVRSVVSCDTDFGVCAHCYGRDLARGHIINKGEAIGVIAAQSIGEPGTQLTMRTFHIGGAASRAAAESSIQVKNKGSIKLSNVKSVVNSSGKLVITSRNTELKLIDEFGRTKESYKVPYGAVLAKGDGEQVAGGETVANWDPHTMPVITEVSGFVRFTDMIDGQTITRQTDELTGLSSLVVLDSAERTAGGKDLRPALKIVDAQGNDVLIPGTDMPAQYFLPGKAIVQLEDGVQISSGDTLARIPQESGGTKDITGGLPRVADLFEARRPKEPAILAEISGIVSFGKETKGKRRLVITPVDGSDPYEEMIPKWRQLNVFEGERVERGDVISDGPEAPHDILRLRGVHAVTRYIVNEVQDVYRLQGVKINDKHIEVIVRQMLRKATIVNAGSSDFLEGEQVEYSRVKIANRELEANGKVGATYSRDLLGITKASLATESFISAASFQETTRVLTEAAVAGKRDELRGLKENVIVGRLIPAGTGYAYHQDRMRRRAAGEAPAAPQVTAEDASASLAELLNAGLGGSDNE
E. coli core RNAP enzyme, sequence (P0A800 whole entry, chain 4 of 4): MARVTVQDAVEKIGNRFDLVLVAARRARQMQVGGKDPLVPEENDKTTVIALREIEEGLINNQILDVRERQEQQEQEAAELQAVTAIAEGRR

B1: BODIPY FL-labelled DksA with a cysteine substitution at position 35 (A35C) (natural protein, E. coli)
chain: MQEGQNRKTSSLSILAIAGVEPYQEKPGEEYMNECQLAHFRRILEAWRNQLRDEVDRTVTHMQDEAANFPDPVDRAAQEEEFSLELRNRDRERKLIKKIEKTLKKVEDEDFGYCESCGVEIGIRRLEARPTADLCIDCKTLAEIREKQMAG
modifications: BODIPY FL (maleimide) conjugated to the cysteine at position 35
  Kd: 112 nM
